Source: IntAct's records for PubMed 19135897

B1: Mitochondrial Rho GTPase (Drosophila melanogaster (Fruit fly)), Q8IMX7 (parent)
chain: MGQYTASQRKNVRILLVGDAGVGKTSLILSLVSEEYPEEVPPRAEEITIPANVTPEQVPTSIVDFSAVEQSEDALAAEINKAHVVCIVYAVDDDDTLDRITSHWLPLVRAKCNPSLDGEGDAEAEAEGDTQREPIRKPIVLVGNKIDLIEYSTMDSVLAIMEDYPEIESCVECSAKSLHNISEMFYYAQKAVLHPTSPLYMMEEQELTSACKKSLVRIFKICDIDGDNLLNDYELNLFQRRCFNTPLQPQILDEVKAVIQKNVPDGIYNDAVTLKGFLFLHCLFIQRGRNETTWAVLRRFGYNDQLEMCQEYLRPPLKIPPGSSTELSHRGQQFLIAVFERYDRDGDGALSPEEHKMLFSTCPAAPWSYSTDIRKSCPINETTGWVTLHGWLCRWTLMTLIDVVKTMEYLAYLGFNVHENDSQLAAIHVTRERRIDLAKRQSSRSVYKCHVIGPKGSGKTGMCRGFLVEDMHKLIGKEFKTNVVNCINSVQVYGQEKHLILRDIDVRHALDPLQPQEVNCDVACLVYDSSNPRSFEYVARIYIKYYAESKIPVMIVGTKCDMDERRQDYLMQPSEFCDKYKLLPPHLFSLKTNKKELYTKLATMAAFPHLRQFGLMTEDPKLWLKAGLGVAAATMLGFIVLKTISAAGAHTR
B2: Mitochondrial Rho GTPase 1 (Homo sapiens), Q8IXI2 (parent)
chain: MKKDVRILLVGEPRVGKTSLIMSLVSEEFPEEVPPRAEEITIPADVTPERVPTHIVDYSEAEQSDEQLHQEISQANVICIVYAVNNKHSIDKVTSRWIPLINERTDKDSRLPLILVGNKSDLVEYSSMETILPIMNQYTEIETCVECSAKNLKNISELFYYAQKAVLHPTGPLYCPEEKEMKPACIKALTRIFKISDQDNDGTLNDAELNFFQRICFNTPLAPQALEDVKNVVRKHISDGVADSGLTLKGFLFLHTLFIQRGRHETTWTVLRRFGYDDDLDLTPEYLFPLLKIPPDCTTELNHHAYLFLQSTFDKHDLDRDCALSPDELKDLFKVFPYIPWGPDVNNTVCTNERGWITYQGFLSQWTLTTYLDVQRCLEYLGYLGYSILTEQESQASAVTVTRDKKIDLQKKQTQRNVFRCNVIGVKNCGKSGVLQALLGRNLMRQKKIREDHKSYYAINTVYVYGQEKYLLLHDISESEFLTEAEIICDVVCLVYDVSNPKSFEYCARIFKQHFMDSRIPCLIVAAKSDLHEVKQEYSISPTDFCRKHKMPPPQAFTCNTADAPSKDIFVKLTTMAMYPHVTQADLKSSTFWLRASFGATVFAVLGFAMYKALLKQR

Legend:
kinh_rat Kif5b, Q2PQA9 = variants of: B1; details: with kinh_rat Kif5b
Chain of kinh_rat Kif5b, Q2PQA9 (Q2PQA9 whole entry): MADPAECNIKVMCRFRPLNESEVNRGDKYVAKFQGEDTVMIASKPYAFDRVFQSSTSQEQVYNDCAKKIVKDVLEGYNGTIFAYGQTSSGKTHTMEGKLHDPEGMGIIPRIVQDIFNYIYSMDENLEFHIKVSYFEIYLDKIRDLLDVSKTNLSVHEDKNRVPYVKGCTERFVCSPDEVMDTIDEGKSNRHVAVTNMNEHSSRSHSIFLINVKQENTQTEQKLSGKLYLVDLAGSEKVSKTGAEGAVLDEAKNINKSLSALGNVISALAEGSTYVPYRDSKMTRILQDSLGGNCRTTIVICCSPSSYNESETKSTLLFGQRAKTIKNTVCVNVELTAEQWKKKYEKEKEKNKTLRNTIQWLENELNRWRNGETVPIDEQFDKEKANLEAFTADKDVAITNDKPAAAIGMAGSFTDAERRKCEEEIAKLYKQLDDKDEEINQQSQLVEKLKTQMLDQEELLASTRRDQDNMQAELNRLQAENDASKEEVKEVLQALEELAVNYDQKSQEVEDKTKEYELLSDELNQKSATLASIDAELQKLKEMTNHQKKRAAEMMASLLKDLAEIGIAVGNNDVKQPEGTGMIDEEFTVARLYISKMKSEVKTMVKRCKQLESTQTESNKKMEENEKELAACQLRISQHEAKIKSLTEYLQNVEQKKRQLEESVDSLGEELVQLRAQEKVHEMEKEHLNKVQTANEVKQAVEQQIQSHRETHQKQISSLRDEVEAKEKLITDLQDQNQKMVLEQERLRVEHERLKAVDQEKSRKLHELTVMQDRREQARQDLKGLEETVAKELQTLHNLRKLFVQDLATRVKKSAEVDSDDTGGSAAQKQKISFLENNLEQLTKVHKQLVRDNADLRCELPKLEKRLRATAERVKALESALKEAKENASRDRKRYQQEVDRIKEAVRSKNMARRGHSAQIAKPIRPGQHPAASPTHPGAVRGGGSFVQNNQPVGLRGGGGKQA

kif5c_rat Kif5c, P56536 [1] = variants of: B2; details: with kif5c_rat Kif5c
Chain of kif5c_rat Kif5c, P56536 (P56536 whole entry): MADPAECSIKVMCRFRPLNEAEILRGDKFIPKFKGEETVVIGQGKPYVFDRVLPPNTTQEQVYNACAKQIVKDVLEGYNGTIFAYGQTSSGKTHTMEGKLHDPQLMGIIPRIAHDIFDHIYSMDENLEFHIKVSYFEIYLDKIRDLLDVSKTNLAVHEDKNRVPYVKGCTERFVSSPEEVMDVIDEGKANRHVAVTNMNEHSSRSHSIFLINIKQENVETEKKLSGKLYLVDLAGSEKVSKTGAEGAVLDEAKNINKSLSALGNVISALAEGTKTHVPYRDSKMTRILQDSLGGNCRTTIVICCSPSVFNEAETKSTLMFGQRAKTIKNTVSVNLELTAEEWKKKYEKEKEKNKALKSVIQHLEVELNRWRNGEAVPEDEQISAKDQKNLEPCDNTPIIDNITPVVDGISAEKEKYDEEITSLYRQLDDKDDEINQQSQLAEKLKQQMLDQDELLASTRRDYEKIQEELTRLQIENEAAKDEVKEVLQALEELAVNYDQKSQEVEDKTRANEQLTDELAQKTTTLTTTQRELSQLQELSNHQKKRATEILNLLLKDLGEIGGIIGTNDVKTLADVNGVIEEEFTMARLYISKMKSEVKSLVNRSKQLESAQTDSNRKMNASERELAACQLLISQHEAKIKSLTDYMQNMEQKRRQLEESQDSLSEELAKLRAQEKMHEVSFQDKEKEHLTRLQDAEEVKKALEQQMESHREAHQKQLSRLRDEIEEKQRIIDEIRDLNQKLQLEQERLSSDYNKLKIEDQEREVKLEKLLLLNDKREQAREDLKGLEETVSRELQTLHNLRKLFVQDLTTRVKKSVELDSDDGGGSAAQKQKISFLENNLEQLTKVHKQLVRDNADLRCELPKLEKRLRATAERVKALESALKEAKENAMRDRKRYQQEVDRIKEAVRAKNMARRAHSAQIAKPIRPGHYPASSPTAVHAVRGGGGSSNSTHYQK

kif5c_rat Kif5c, P56536 [2] = variants of: B2; details: with kif5c_rat Kif5c; remark: listed apart in the source
[3] = variants of: B2; details: with kif5c_human KIF5C

effect of a mutation on the interaction (kinh_rat Kif5b, Q2PQA9)	effect of a mutation on the interaction (kif5c_rat Kif5c, P56536 [1])	effect of a mutation on the interaction (kif5c_rat Kif5c, P56536 [2])	effect of a mutation on the interaction [3]	Variant
decreasing interaction	–	–	–	E234K;D345K
–	decreasing interaction	decreasing interaction	decreasing interaction strength	E208K;E328K
